# Experimental data published in the RNAGym collection of RNA variant scans (doi:10.1073/pnas.2313332121).
# This sample holds only a part of the variants without activity.
# B1: TPR 5TU (parent)
# chain: GGAUCUUCUCGAUCUAACAAAAAAGACAAAUCUGCCACAAAGCUUGAGAGCAUCUUCGGAUGCAGAGGCGGCAGCCUUCGGUGGCGCGAUAGCGCCAACGUUCUCAACUAUGACACGCAAAACGCGUGCUCCGUUGAAUGGAGUUUAUCAUG
# Variants of: B1
# Test: polymerase ribozyme fitness, log enrichment relative to wild type (log ratio); higher = more active; in vitro selection for triplet polymerase activity
# Method in brief: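 Each subunit of a heterodimeric triplet polymerase ribozyme was represented by a PCR-built, transcribed mutant library that underwent triplicate single-round in vitro selection with frozen incubation at −7 °C. Extended constructs were recovered by gel excision, streptavidin-bead capture and RT-PCR, and Illumina sequencing of input and output libraries kept genotypes with ≥10 input reads and ≥1 read per output. Fitness is the logarithm of genotype enrichment relative to wild-type enrichment, from inverse-variance-weighted replicate averages, with a logarithm base of 2.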
row,Variant,polymerase ribozyme fitness (log ratio)
1,A137C U144A U146A,-3.95
2,A121U G141A,0.973
3,A119G G128C,-1.98
4,G128U G141A,-3.74
5,U130G U135C,-4.07
6,U127G U145G,≤ -4.2
7,A137G G143C,-3.85
8,U127A U144C,-3.74
9,U144G U148G,-3.38
10,A119C G133C,-1.83
11,C118U U145G,-1.09
12,A120G U134G U148G,-3.72
13,A119U G124U U146A,-0.483
14,A120U U148G,-3.59
15,A119C U139C A142C,-4.13
16,U139A U146A,≤ -4.2
17,C118A U139G,-0.933
18,G141A U146C,0.27
19,G128U U139A A142G,-4.07
20,G124U G141U,0.513
21,U134G U144G,-1.51
22,G136C U145A C149G,≤ -4.2
23,G136A G141U,1.57
24,G126A U148C,-2.93
25,C131U U146C G152C,-1.2

row,Variant,polymerase ribozyme fitness (log ratio)
1,G140U G143A,≤ -4.2
2,U148G A150G,-3.79
3,U134A G141C,-3.42
4,A142G,-0.833
5,A142C,-0.793
6,A142U,-0.482
7,G128U U139C,-3.96
8,C129A G133C,-3.55
9,C125G U145G,-2.69
10,U135A C149G,-4.09
11,C125U U145A,-1.23
12,A137G U148A,-3.67
13,G133U,-2.62
14,G133C,-1.65
15,G133A,-3
16,G141U U146G,1.06
17,U148G,-3.37
18,U148A,-2.72
19,U148C,-1.53
20,A122G,-0.303
21,A122U,-0.218
22,A122C,-0.398
23,U139G,-0.159
24,U139C,-2.57
25,U139A,-3.57

row,Variant,polymerase ribozyme fitness (log ratio)
1,U127C,-1.3
2,U127A,-2.94
3,U127G,-3.06
4,G128A U139G,-4.08
5,A121U U135A,-0.658
6,G124A U127C,-2.79
7,C125G G126A,-3.42
8,G140A U146G,-3.51
9,U151G G152U,-3.49
10,A121G U148A,-3.78
11,G133A A142G,≤ -4.2
12,U144C A147G,-0.508
13,A119U U148A,-3.01
14,A119G A120U,0.0433
15,G136C A142C U146A,-2.66
16,A142U U146G,-1.2
17,A122U G136U,-2.24
18,A122C C125A,-0.874
19,C118G A122G,-0.988
20,A142U U144C,-3.6
21,G140C U148G,-4.14
22,G128A U146G,-4.16
23,A147C U148A,-3.81
24,U135G A142C,-2.54
25,G140C G143U,-3.7

row,Variant,polymerase ribozyme fitness (log ratio)
1,G136C,-2.62
2,G136A,0.579
3,G136U,-1.9
4,U130C A138G,-3.28
5,U134G U148A,-3.87
6,G126A G140U,-3.43
7,C118U A147C,0.751
8,A121U U127C G143C,-4.06
9,A137C C149U,-3.9
10,U127A U139G G152U,≤ -4.2
11,A121U C131U U134A,-2.42
12,A122C C125A G140A G143U,≤ -4.2
13,G124A G133U U135C,-3.82
14,C123U A137G,-0.927
15,G126A C149G,-3.13
16,U135C G141U,-1.69
17,U144A A150U,-1.5
18,A120G U127C,-2.22
19,U135A U148G,-3.41
20,C132A G143U,≤ -4.2
21,G126A A150C,-4.16
22,G126A G133C,-0.815
23,A137C A150G,-4.17
24,C123U G141U,-0.894
25,G126A G141U,-2.59

row,Variant,polymerase ribozyme fitness (log ratio)
1,U145C,0.096
2,U145A,0.192
3,U145G,-0.131
4,G140U U145C,-3.66
5,U146A U148A,-3.37
6,C132G G141C,-3.73
7,A120G G124A,0.00161
8,G141A G143C,-3.92
9,A120C,-0.331
10,A120G,0.00404
11,A120U,-0.233
12,A120C G152A,-2.33
13,C123G G141C,-0.168
14,U127G G143A A147G,≤ -4.2
15,G126A U135C,-1.38
16,C118U G124U A142C,-1.96
17,A119G G143A,1.13
18,G133U G141U,-2.6
19,G133U G141C,-3.81
20,C125G U134A G140A,≤ -4.2
21,A150G G152U,-3.43
22,G133U U144A,-3.29
23,G136A A142C,-0.134
24,A121C U139G G140A U144G,-4.07
25,C123G G133U,-3.68
